Key:
Assay in all cases: flow cytometry, transfected 293T cells
[1] = biological target: CHIKV E2-6K-E1 envelope proteins (strain S27) with E2 G205A (Chikungunya virus strain S27) (UniProt Q8JUX5)
[2] = biological target: CHIKV E2-6K-E1 envelope proteins (strain S27) with E2 T191A (Chikungunya virus strain S27) (UniProt Q8JUX5)
[3] = biological target: CHIKV E2-6K-E1 envelope proteins (strain S27) with E2 Q184A (Chikungunya virus strain S27) (UniProt Q8JUX5)
[4] = biological target: CHIKV E2-6K-E1 envelope proteins (strain S27) with E2 S194A (Chikungunya virus strain S27) (UniProt Q8JUX5)
[5] = biological target: CHIKV E2-6K-E1 envelope proteins (strain S27) with E2 Y199A (Chikungunya virus strain S27) (UniProt Q8JUX5)
[6] = biological target: CHIKV E2-6K-E1 envelope proteins (strain S27) with E2 T196A (Chikungunya virus strain S27) (UniProt Q8JUX5)

Mxra8-Fc (mouse Mxra8 extracellular domain fused to mouse IgG2b Fc) (Fc fusion)
Binding Reactivity (% WT) [1]: 78.9 % WT
Binding Reactivity (% WT) [2]: 87.4 % WT
Binding Reactivity (% WT) [3]: 130 % WT
Binding Reactivity (% WT) [4]: 87 % WT
Binding Reactivity (% WT) [5]: 15.9 % WT
Binding Reactivity (% WT) [6]: 86.6 % WT
